Data from PMC4114980.

Biological target: purified bovine brain tubulin (bovine) (UniProt Q6B856)
Experiment: co-sedimentation; constant Chro-CTD (10 µg) with 0.125–2.5 µM taxol-stabilized microtubules from bovine brain tubulin; bound fraction in pellets by densitometry of immunoblots; Kd from a Lineweaver-Burk plot; three independent experiments

B1: Chro-CTD (329–926), COOH-terminal domain of Chromator, GST-fusion protein (domain or fragment)
chain: AMDAFKQWVNETVAGDGSSSPSSANEDESSTEQEWPPSSGAIKRKLNNTDSSLEGSGLNDSMDLEDLEEDLPSHTVKRLKNGGSSVQLNKPRIQSTEKQQTKINGNSTVVSPLTEQKMGEIIYTEDSTSSGMFRKPEMPNTINLKKEKPECPVRYLSRSEVGSSTRGVFRVENSEAPAPVSPAPVPQKVIAAPPAAGIAKRLPMARPAHSGANSPITVGQRQHALRTPGHGPVTAALHRRPGVGGASHVRQNLQQAPGRAHPGGRVLARAGVGTPQHRQQVQTPQGAKAVTPEQKILQLSKSGDLKVTRKVVTREELLAQRSAQARQRQALSQQQSSQQQKATPARQRIVSKSTIQPTPLQMELEEEIHQHQAQLCPITGKLIGQEETQLQMEQEQQQEQQREQLEAAAQALLGSDQQVLTNEDGSALLVRGEDGTVYQVAGKNAEGQTILVTQGPDGEQQFAYVAAAEGEDQDVLSLDHAVAEAVQAGEQVESHGVGAATADGEQILVSMTEEELAQHQVLQQAEASAAGTGTPPTAQIHITTSDSDGTESQIPAEVVQADLPSPGGTRRVVLLLQDGTFMMTEMHEDQFKTLNIPT
Kd: 230 nM
